In patent publication US20020004209A1, “Use of SLIM3 for binding to molecules” (Schering Aktiengesellschaft Patents, priority 1999, published 2002):

Legend:
Assay in all cases: GST-protein-interaction test
Assay type in all cases: binding
Details in all cases: in vitro
co-activator RIP140 = biological target: T1, co-activator RIP140 (Homo sapiens, UniProt P48552)
T1 sequence (P48552 1-1158): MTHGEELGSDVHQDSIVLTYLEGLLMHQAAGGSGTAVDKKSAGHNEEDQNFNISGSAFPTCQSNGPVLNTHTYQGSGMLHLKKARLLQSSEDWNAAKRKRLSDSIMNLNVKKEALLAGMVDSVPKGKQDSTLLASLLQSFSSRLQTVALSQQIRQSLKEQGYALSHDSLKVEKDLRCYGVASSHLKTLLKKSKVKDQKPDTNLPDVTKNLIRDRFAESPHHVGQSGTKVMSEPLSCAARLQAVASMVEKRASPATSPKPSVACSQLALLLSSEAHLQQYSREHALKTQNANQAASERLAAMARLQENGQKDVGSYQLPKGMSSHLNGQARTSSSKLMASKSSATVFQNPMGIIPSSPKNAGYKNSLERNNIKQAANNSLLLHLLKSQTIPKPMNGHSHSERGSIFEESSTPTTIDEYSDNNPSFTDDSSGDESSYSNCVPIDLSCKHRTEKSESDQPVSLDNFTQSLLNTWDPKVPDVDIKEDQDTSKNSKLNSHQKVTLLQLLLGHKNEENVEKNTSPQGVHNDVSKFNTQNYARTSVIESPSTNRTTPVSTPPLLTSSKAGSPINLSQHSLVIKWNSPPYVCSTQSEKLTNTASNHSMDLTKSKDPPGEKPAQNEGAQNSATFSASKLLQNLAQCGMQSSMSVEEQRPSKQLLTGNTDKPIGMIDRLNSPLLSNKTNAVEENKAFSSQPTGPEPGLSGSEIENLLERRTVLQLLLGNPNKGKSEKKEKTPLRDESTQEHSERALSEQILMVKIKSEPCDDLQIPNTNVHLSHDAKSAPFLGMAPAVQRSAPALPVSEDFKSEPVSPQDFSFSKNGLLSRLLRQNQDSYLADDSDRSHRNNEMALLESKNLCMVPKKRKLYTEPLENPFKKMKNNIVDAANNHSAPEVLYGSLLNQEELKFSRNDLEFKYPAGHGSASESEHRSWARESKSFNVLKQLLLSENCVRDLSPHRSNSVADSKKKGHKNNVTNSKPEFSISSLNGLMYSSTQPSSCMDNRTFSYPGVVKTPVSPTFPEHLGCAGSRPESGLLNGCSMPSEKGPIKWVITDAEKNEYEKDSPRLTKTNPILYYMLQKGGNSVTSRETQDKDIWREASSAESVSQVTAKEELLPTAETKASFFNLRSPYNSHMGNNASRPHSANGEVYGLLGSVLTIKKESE
T1 sequence (Q14192 1-279 partner): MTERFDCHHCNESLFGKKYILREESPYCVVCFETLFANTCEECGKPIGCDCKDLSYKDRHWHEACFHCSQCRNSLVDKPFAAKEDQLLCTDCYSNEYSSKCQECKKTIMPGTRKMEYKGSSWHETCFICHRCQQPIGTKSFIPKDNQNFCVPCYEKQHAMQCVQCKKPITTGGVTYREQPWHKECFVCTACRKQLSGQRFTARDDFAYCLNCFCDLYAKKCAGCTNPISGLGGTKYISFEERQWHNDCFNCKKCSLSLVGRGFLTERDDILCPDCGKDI

co-activator AIB/ACTR = co-activator AIB/ACTR (Homo sapiens, UniProt Q9Y6Q9)
co-activator AIB/ACTR, sequence (Q9Y6Q9 whole entry, one chain of several): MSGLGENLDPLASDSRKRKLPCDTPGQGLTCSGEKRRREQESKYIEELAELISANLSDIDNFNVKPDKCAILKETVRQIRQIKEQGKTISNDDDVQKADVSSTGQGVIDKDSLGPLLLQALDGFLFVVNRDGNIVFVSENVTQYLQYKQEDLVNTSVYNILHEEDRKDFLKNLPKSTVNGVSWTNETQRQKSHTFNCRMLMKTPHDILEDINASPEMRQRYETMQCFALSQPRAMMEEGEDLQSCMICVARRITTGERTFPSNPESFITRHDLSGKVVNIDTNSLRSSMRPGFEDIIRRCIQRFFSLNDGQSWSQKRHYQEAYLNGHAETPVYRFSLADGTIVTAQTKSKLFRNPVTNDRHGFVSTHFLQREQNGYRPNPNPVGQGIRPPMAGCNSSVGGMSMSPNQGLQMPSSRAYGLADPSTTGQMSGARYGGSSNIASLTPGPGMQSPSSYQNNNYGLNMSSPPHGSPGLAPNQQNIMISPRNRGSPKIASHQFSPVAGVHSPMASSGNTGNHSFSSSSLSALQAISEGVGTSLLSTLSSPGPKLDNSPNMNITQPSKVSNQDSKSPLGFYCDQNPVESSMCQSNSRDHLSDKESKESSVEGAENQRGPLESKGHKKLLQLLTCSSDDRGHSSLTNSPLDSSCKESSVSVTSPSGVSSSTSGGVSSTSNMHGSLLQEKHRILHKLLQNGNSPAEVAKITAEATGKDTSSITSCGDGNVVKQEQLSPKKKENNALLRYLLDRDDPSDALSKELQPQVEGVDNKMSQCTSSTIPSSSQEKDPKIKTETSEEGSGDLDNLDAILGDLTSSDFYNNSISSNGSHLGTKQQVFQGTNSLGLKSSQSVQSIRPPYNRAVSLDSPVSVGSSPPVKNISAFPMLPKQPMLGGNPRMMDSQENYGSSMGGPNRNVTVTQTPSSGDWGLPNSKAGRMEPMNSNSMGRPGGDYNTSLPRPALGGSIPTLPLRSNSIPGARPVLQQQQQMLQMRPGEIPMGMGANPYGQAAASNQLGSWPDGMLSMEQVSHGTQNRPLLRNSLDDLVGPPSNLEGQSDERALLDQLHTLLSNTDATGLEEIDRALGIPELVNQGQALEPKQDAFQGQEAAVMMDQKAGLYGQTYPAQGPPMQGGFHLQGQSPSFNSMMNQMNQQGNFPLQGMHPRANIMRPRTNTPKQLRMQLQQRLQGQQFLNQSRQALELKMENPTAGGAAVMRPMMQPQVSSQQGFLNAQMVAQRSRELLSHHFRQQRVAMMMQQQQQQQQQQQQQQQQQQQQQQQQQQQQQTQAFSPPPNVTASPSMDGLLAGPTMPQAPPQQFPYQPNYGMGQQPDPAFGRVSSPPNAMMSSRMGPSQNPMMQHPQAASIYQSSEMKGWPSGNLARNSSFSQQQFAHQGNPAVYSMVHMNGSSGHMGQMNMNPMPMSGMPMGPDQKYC

co-activator SRC1 = co-activator SRC1 (Homo sapiens, UniProt Q15788)
co-activator SRC1, sequence (Q15788 whole entry): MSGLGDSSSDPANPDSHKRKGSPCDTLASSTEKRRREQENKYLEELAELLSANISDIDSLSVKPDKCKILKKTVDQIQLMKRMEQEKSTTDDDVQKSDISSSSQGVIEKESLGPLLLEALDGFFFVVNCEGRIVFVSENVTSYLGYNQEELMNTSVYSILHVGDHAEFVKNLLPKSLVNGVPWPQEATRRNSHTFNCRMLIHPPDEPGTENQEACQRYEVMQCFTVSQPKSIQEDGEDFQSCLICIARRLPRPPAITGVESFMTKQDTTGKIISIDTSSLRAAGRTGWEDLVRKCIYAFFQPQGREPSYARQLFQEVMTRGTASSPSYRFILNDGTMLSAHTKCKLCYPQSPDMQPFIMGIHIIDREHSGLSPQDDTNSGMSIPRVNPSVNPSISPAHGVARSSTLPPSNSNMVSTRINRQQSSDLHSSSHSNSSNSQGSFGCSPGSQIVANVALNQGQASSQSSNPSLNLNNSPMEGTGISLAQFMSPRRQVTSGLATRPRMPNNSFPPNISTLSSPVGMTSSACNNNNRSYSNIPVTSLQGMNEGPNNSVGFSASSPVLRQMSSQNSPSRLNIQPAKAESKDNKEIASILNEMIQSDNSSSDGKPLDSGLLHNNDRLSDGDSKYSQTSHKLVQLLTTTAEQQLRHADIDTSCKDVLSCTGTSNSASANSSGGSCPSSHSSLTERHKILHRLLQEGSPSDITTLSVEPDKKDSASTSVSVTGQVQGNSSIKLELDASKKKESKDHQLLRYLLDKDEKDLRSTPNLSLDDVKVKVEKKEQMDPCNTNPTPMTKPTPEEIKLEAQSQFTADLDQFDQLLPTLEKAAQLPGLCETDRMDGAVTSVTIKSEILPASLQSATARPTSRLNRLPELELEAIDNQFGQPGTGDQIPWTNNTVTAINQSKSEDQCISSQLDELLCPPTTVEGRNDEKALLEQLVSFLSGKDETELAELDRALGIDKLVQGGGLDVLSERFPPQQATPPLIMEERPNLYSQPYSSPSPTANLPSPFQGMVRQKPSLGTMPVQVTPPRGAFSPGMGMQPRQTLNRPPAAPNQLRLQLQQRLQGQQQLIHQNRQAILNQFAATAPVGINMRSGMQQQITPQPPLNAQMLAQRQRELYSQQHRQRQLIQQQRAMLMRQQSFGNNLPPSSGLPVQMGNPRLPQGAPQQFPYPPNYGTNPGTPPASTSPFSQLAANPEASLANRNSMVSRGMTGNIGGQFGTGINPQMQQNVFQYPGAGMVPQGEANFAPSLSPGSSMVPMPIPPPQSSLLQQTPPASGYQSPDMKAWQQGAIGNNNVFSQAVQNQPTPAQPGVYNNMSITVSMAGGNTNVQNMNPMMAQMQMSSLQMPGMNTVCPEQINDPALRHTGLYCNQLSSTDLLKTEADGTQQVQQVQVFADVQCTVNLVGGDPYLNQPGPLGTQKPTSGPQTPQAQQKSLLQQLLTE

interaction with co-activator (co-activator RIP140): interacts | interaction with co-activator (co-activator AIB/ACTR): interacts | interaction with co-activator (co-activator SRC1): no interaction
Substance: SLIM3: LIM-domain protein of 279 amino acids, co-activator for nuclear receptors AR and ERβ
